Assay: yeast display, Sf9 membrane polyspecificity reagent, FACS + sequencing; frameworks hold sequencing errors
Summary of the method: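 Sorting gates, low and high (top ~1%), were placed on anti-HA fluorescence to track expression and on streptavidin fluorescence to track reagent binding. A clone's polyreactivity label is taken from the gate it came out of. The reagent was 10% biotinylated, detergent-solubilized Sf9 membrane, applied for 1 hour at 4 °C to galactose-induced yeast display cells.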

Row | Sequence | polyreactivity (PSR sort gate)
1 | QVQLGESGGGLVQAGGSLRLSCAPSGNNFVGNAMGWCRQAAGKERELVAAIRRSGGTTYYADSVKGRFTISRDNAKNTVYLQMNSLKPEDTAVYYCAASRPYQGDYWGQGTQVTVSS | low polyreactivity
2 | QFQLVESGGGLVQARGSLRLSCAASGITFKEYAMGWYRQAPGTERELVAAISKSGGSTYYADSVKGRFTISRDNAKNTVYLQMTSLKPEDTAVYYCAADYAEYEYGDYYWGQGTQVTVSS | low polyreactivity
3 | QVQLEESGGGLVQAGGSLRLTCAASGRIFFQNTIGWYRQAPGQERELVAAITSDGSTYYADSVKGRFTISRDNAKNTVYLQMNSLKPEDTAVYYCAAEISYRWWYKLGFTSFDYWGQGTQVTVSS | low polyreactivity
4 | QVQLVESGGGLVQAGGSLRLSCAASGRILAANAMRWYRQAPGKERELVAAISWSGGRTYYADSVKGRFTISRDNAKNTVYLQMNSLKPEDTAVYYCASVRRYKMDYWGQGTQVTVSS | high polyreactivity
5 | QVQLVESGGGLVQAGGSLRLSCAASGSTFPRNAMGWYRLAPGKERELVAAITSGDSTYYADSVNGRFTISRDNAKNTVYLQKNSQKPEDTAVYYCGQGTQVTVSS | low polyreactivity
6 | QVQLVESGGGLVQAGGSLRLTCSASGSTFPSNSMGGYRQAPGKERELVAAITFRGGRTYYADSVKGRFTISRDNAKNTVYLQMNSLIPEDTAVYYCAAERWWYTVRGYGYWGQGTQVTVSS | high polyreactivity
7 | QVQIEESRGGLVQAGGSLRLSCAASGRIIDRYAMGWSRPAPRKERELVAAISSGGRTYYADSVKGRFTISRDNAKNTVYLQMHSLKPEDTAVYYCNAVAYSLSGYNSWGQGTQVTVSS | high polyreactivity
8 | QVQLVESGGGLVQAGGSLRLSCAASGRTFKRNAMGWYRQAPGKEREFVAVITGSGGSTYYADSVKGRFTISRDNAKNTVYLQMNSLKPEDTAVYYCAAQATRYGQYTYDYWGQGTQVTVSS | high polyreactivity
9 | QVQLQESRGGLVKAGGSLRLSCAATGNISPRDAMGWYRQAPGEERDLVASNAYSAITYYADGVKGRYTISRDNAKNTVYLQMNSLKPEDTEVYYCAVYQFTYPVFPAYWGQGTQVTVSS | low polyreactivity
10 | QVQLVESGGGLVQPGGSLRLSCAASGSIFTPNAMGWYRPAPGKERELVAAISSSSDRTYYADSVKGRFTISRDNAKNTVYLQMNSLKPEDTAVYYCAALSKTRGGYWGHGTQVTVSS | high polyreactivity
11 | QVQLVESGGGLVQAGGSLRLSCAASGSIFFLYAMGWYRQAPGKERELVAAISCSGGRTYYADSVKGRFTISRDNAKNTDYIQMNSLKPEDTAVYYCAASYSGRQDRYPHYDYWGQGTQVTVSS | low polyreactivity
12 | QVQLVESGGGLVQAGGSLRLSCAASGFTFSSYAMGWYRQAPGKERELVAAITQSGGRTYYADSVKGRFTISRDNAKNTVYLQMNSLKPEDTAVYYCAADVPLWYDYGGQGTQVTVSS | low polyreactivity
13 | QVQLVESGGGLVQAGGSLRLSCAASGSIFYSNAMGWYRQAPGKERELVAAIHWSGGSTYYADSVKGRFTISRDNAKNTFYLLMNSLKPEDTAVYYCAADYGWGPIYDYWGQGTQVNVSS | low polyreactivity
14 | QVQLVESGGGLVKAGGSLRLSCAASGSTFPLYAMGWYRQAPGKEREFVAAIRWIGGSTYYADSVKGRFTISRDNAKNTVYLQMNSLKPEDTAVYFCAADYVVSAFDYWGQGTQVTVSS | low polyreactivity
15 | QVQLVESGGGLVQAGGSLRLSCAASGSIIRRYAMGWYRPAPGKERELVAAISSGGSTYYADSVKGRFTISRDNAKNTVYLQMNSLKPEDTAVYYCAALYYQITTTHYLHLHYDYWGEGTQVTVSS | low polyreactivity
16 | QVQLVESGGGLVQAGGSLRLSCAASGRTFYHYVMGWYRQEPGKERELVAAITSRGGSTYYADSVKGRFTISRDNAKNTVYLQMNSLKPEDTAVYYCAARLNYGNKYDYWGQGTQVTVSS | high polyreactivity
17 | QVQLVESGGGLVQAGGSLRLSCAASGYTFIYYAMGWYRQAPGKERELVATISIDGSTNYADSVKGRFTISRDNAKYSVYLQMNSLKREDTAVYYCNRERYEDYDYWGQGTQVTVSS | high polyreactivity
18 | QVQLVESGGGLVQAGGSLRLSCAASGFTFSYYAMGWYRQAPGKERELVAAITSGGSTYYADSVKGRFTISRDNAKNTVYLQMNSLKPEDTAVYYCNARGYGTLNVRRERMDYWGQGTQVTVSS | high polyreactivity
19 | QVQLVESGGGLVQAGGSLRLSCAASGRIFNRNAMGWYRQAPGKERELVAAISRSGDNTYYADSVKGRFTISRDNAKNTVYLQMNSLKPEDTAVYYCAKDGSLDAQSYDYDYWGQGTQVTVSS | low polyreactivity
20 | QVQLAESGGALVQAGCSLRLSCSASGYTSAKNVMGWYIQAPGKERELVAAISRSGGRTYYADSVKGRFTISRDNAKNSVYLQMNSLKPEDTAVYYCAARSATNHADDYYYWGQGTQVTVSS | high polyreactivity
21 | QVQLVESGGGLVQAGGSLRLSCAASGSIFYPYAMGWYRQAPGKEREWVATITLSGGRTYYADSVKGRFTISRDNAKNTVYLQMNSLKPEDTAVYYCATDYAYGAFLYDYWGQGTQVTVSS | low polyreactivity
22 | QVQLVESAGGLVQAGGSLRLSCAASGRIFDRYTMGCYRQAPGKERELVAAITFGGGSTYYADSVKGRFTISRDNAKNTVYLQMNSLKPEDTAVYYCAKQRHGKLGHILGYNYWGQGTQVTVSS | low polyreactivity

Row | Sequence | polyreactivity (PSR sort gate)
23 | QVQLVESGGGLVQAGGSLRLSCAASGITFYVNAMGWYRQAPGKERELVAVITFGGGSTYYADSVKGRFTISRDNAKNTVYLQMNSLKPEDTAVYYCAKDPTYSPYLPGPIFYYKEDYWGQGTQVTVSS | low polyreactivity
24 | QVQLVESGGGLVQAGGSLRLSCAASGITFFGYALGWYRQAPGKERELVADITTSDSTYYADSVKGRFTISRDNAKNTVYLQMNSLKPEDTAVYYCNADYYDGGYGPGVEEYDYWGQGTQVTVSS | low polyreactivity
25 | QVQLVESGVGLVQAGGSLRLSCAASGFIFPTYAMGWYRQAPGKEREFVASITRRGGSTYYADSVKGRFTISRDNAKNSVYLQMNSLKPEDTAVYYCAAGYYGFRGGGSDYWGQGTQVTVSS | high polyreactivity
26 | QVQLVESGGGLVQAGGSLRLSCAVSGRIFRRNVMGWYRQAPGKERELVAGSSYSGDSTYYADSVKGRFTISRDNAKNTVYLQMNRLKPEDTAVYYCAAALAHYRGMYYWGQGTQVTVSS | high polyreactivity
27 | QVQLVESGGGLVQAGGSLRLSCAASGRTFRWYPMGWYRQAPGKERELVAAINPGGSTNYADSVKGRFTISRDNANNTVDLQMNSLKPEDSAVYYCNAAGYDALTQNYYWGQGTQVTVSS | low polyreactivity
28 | QVQLVESGGGLVQAGGSLRLSCAASGRIFGLYSRGSYRQAPGKERELVAAISSRGGSTYYADSVKGRFTISRDNAKNTVYLQMNSLKPEDTAVYYCARETSYFGPSDYDYWGQGTQVTVSS | high polyreactivity
29 | QVQLVESGGGLVQAGGSLRLSCAASGFIFRRYAMGWYRQPPGKERELVAAISGSGGRTYYADSVKGRFTISRDNAKNTVYLQMNSLKPEDTAVYYCAADHGSLLYDYWGQGTQVTVSS | high polyreactivity
30 | QVQLVESGGGLVQAGGSLRISCAASGSTFTTYAMGWYRQAPGKERELVARIRSSGGITYYADSVKGRFTISRDNAKNTVYLQMNSLKPEDTAVYYCAARGQFYNTRVGYWGQGTQVTVSS | high polyreactivity
31 | QVQLVESGGGLVQAGGSLRLSCAASGYIFPYNVMGWSRQAPGKERELVAAITWRVVRTYYADSVKGRFTISRDNAKNTVYLQMNSLKPEDTAVYYCAALSRQSGDYWGQGTQVTVSS | high polyreactivity
32 | QVQLVESGGGLVQAGGSLRLSCAASGRTFSLYAMGRYRQAPGKERELVAGISSSGGSTYYADSVKGRFTISRDNAKNTVYLQMNSLKQEDTAFYYCAAYRNTVIRNSDYWGQGTQVTVSS | high polyreactivity
33 | QVQLVESGGGLVQAGGSLRLSCAASGFIVTPYTMGWYRQAAGKERELVAAITDGSSTYYADSVKGRFTISRDNAKNTDYLQMNSLKPEETAVYYFNADGKPPYISWLYDYWGHGTQVTVSS | low polyreactivity
34 | QVQLVESGGGLVQAGGSLRLSCAASGFTFEDYAMGWYRQAPGTERELVAAISSRGTSTYYADSVKGRFTISRDNAKNTVYLQMNSLKPEDTAVYYFNKRGWYPYGYWGQGTQVTVSS | high polyreactivity
35 | QVQLVESGGGLVQEGGSLRLSCASSGFIFEDYAKGWYRQARGKERELVAAMRSNDDSTYYADSVKGRFTISRDNAKNSVYFQMNSLKPEDTAVYYCAAATYGTRLRRYYYWGQGSQVTVSS | high polyreactivity
36 | QVQLVESGGGLVQAGGSLRLSCAASGRIFDKYAMGWYRQAPGKERELVAAITRSGGRTYYADSVKGRFTISRDNAKNTVYLQMNSLKPEDTAVYYCAARYVSRFDWGQGTQVTVSS | high polyreactivity
37 | QVQVVESGGGLVQAGGSLRISCAASGRISVVHAMGWYRQAPGKERELVATINSGGSTYADSVKGRFTNSRDNAKNNVFFQMISQIPEDTAFYYCSARTFRISRLDFWGQCTQVTVSS | high polyreactivity
38 | QVQLVESGGGLVQAGGSLRLSCAASGIIFSSNAMGWYTQAPGKERELVAAISRRGGSTYYADSVKGRFTISRDNAKNSVYLQMNSLKPEDTAVYYCNALLYNGAGYDYWGQGTQVTVSS | high polyreactivity
39 | QVQLVESGGGLVQAGGSLRLSCAASGYIGNYPMGWYRQAPGKESELVAAITTSGGRTYYADSVKGRFTISRDNAKNTVYVQMNSLKPEDTAVYYCAAPWRLFSLYDYWGQGTQVTVSS | low polyreactivity
40 | QVQLVDSGGGLVQAGGSLRLSCAASGFTFSAYAMGWYRQAPGKERELVAAISWSGSRTYYADSVKGRFTISRDNAKNTVYLQMNSLKPEDTAVYYCAKEPYDTFGFYEYDYWGQGTQVTVSS | low polyreactivity
41 | QVQLVESGGGLVQAGGSLRLSCAASGSTFAYAMGCYRQAPGKERELVAAIRTTGGSTYYADSVKGRFTISRDNAKNTVYFQMNSLNPEDSAVYYCAAVWGYGQYGSKYYYKYGYWGQGTQVTVSS | high polyreactivity
42 | QVQLVESGGGLVQAGGSLRLSCAASGRTLSTNGMGWYRQAPGKERELVATITRRGGRTYYADSVKGRFTISRDNAKNTVYLQMNSLKPEDTAVYYCATEQADRRVTYNYWGQGTQVTVSS | high polyreactivity
43 | QDQLVESGGGLVQAGGSLRLSCAASGFIFLPYVMGWYRQAPGKERELVAAISGGGGITYYADSVKGRFTISRDNAKNTVYLQMNSLKPEDTAVYYCAARRQRFGYWGQGTQVTVSS | low polyreactivity

— the nanobody polyreactivity screen of Harvey et al. (2022)
